These results are taken from a protein production outcome set (Wang et al. 2014).

The data set is described as follows: label from the status in PepcDB records.

As to “MSLIASIGELLIDLISVEEGDLKDVRLFEKHPGGAPANVAVGVSRLGVKSSLISKVGNDPFGEYLIEELSKENVDTRGIVKDEKKHTGIVFVQLKGASPSFLLYDDVAYFNMTLNDINWDIVEEAKIVNFGSVILARNPSRETVMKVIKKIKGSSLIAFDVNLRLDLWRGQEEEMIKVLEESIKLADIVKASEEEVLYLENQGVEVKGSMLTAITLGPKGFRLIKNETVVDVPSYNVNPLDTTGAGDAFMAALLVGILKLKGLDLLKLGKFANLVAALSTQKRGAWSTPRKDELLKYKEAREVLAEGHHHHHH”, the protein production entry is on record as “not failed”.
Then “MSLINEATLAESIRRLRQGERATLAQAMTLVESRHPRHQALSTQLLDAIMPYCGNTLRLGVTGTPGAGKSTFLEAFGMLLIREGLKVAVIAVDPSSPVTGGSILGDKTRMNDLARAEAAFIRPVPSSGHLGGASQRARELMLLCEAAGYDVVIVETVGVGQSETEVARMVDCFISLQIAGGGDDLQGIKKGLMEVADLIVINKDDGDNHTNVAIARHMYESALHILRRKYDEWQPRVLTCSALEKRGIDEIWHAIIDFKTALTASGRLQQVRQQQSVEWLRKQTEEEVLNHLFANEDFDRYYRQTLLAVKNNTLSPRTGLRQLSEFIQTQYFDEGHHHHHH”, with “not failed”; and “MSLIYTITLNPAIDRLLFIRGELEKRKTNRVIKTEFDCGGKGLHVSGVLSKFGIKNEALGIAGSDNLDKLYAILKEKHINHDFLVEAGTSTRECFVVLSDDTNGSTMIPEAGFTVSQTNKDNLLKQIAKKVKKEDMVVIAGSPPPHYTLSDFKELLRTVKATGAFLGCDNSGEYLNLAVEMGVDFIKPNEDEVIAILDEKTNSLEENIRTLAEKIPYLVVSLGAKGSICAHNGKLYQVIPPKVQERNDTGAGDVFVGAFIAGLAMNMPITETLKVATGCSASKVMQQDSSSFDLEAAGKLKNQVSIIQLEEREGHHHHHH”, with “not failed”.
Regarding “MSLKDFAGRTAFVTGGANGVGIGLVRQLLNQGCKVAIADIRQDSIDKALATLEAEGSGPEVMGVQLDVASREGFKMAADEVEARFGPVSILCNNAGVNLFQPIEESSYDDWDWLLGVNLHGVVNGVTTFVPRMVERVKAGEQKGGHVVNTASMAAFLAAGSPGIYNTTKFAVRGLSESLHYSLLKYEIGVSVLCPGLVKSYIYASDDIRPDALKGEVKPVDKTAVERLAGVHEFGMEPDVIGARVIEAMKANRLHIFSHPDHKEELREVFDEIIAEYQDYPKDPGYDQRVAFEKFRADSFAEARRQSRAADEGHHHHHH”, the protein production result was “not failed”.
In the case of “MSLKIAAFGEVMLRFTPPEYLMLEQTEQLRMNFVGTGVNLLANLAHFQLETALITKLPANRLGEAGKAALRKLGISDQWVGEKGDHIGSFFAEMGYGIRPTQVTYQNRHQSAFGISEAKDYDFEAFLAEVDMVHICGISLSLTEKTRDAALILAQKAHAYQKKVCFDFNYRPSLNTANSALFMRQQYERILPYCDIVFGSRRDLVELLGFIPREDLEGEAQETELIQRFMSQYNLEWFAGTTRSHSQNQNYLSGYLYTQNEYQQSEKRPLLNLDRIGAGDAYAAGILYGYSQNWSLEKAVTFATVNGVLAHTIQGDIPLTTVKQVNHVLEHPNIDLIREGHHHHHH” it was “not failed”.
As for “MSLKIAKVEALSVAMGDGTGWMPTSAFVRITAEDGTVGWGEASPMLGGIASLGVVARDIAPFLEGQEVLDHAVLLDRMMHRLVKLGPEGIATAALAACDIALWDLKGKLLGQPIYKLLGGAWRTRLPCYSSIGGNAARSVDEVVREVARRVEAEQPAAVKIRWDGDRTRCDVDIPGDIAKARAVRELLGPDAVIGFDANNGYSVGGAIRVGRALEDLGYSWFEEPVQHYHVGAMGEVAQRLDITVSAGEQTYTLQALKDLILSGVRMVQPDIVKMGGITGMMQCAALAHAHGVEFVPHQTQPGVGHFANIHVLSTLMHMTKPVELADRWDRGRPVFRNPAEPVDGHFALGDAPGLGIVVDEDELASRATEITVGRDQRPPAGGQYEGHHHHHH”, the protein production result was “not failed”.
On to “MSLKIKVYLYTRVSTSIQIEGYSLEAQKSRMKAFAIYNDYEIVGEYEDAGKSGKSIEGRIQFNRMMEDIKSGKDGVSFVLVFKLSRFARNAADVLSTLQIMQDYGVNLICVEDGIDSSKDAGKLMISVLSAVAEIERENIRIQTMEGCIQKAREGKWNGEGHHHHHH”, for which the protein production entry was “not failed”.
Then “MSLKITEVKAHALSTPIPERMRVESGAGLKLNRQMILVEVRTDEGVTGVGSPSGPYDLAVLKRAIEDVIGPQLIGEDPANINYLWHKVFHGEVSRNLGHRSVGIAAMSGVDIALWDLKGRAMNQPIYQLLGGKFHTRGVRAYASSIYWDLTPDQAADELAGWVEQGFTAAKLKVGRAPRKDAANLRAMRQRVGADVEILVDANQSLGRHDALAMLRILDEAGCYWFEEPLSIDDIEGHRILRAQGTPVRIATGENLYTRNAFNDYIRNDAIDVLQADASRAGGITEALAISASAASAHLAWNPHTFNDIITVAANLHLVAASPHPAMFEWDITHNDLMTRLASYDLKLENGLVQPPQGPGLGFEIDWDFVAAHAWKGEPAIGAGHGMKKEGHHHHHH”, with “not failed”; and “MSLKITSIEVFDCELKKRDQTMSSYNPVLIRVNTDSGLSGIGEVGLAYGAGAKAGVGIIRDLAPLIVGEDPLNIEKIWEFFFRKTFWGMGGGNVFYAGMSAIDIALWDIKGKYLGVPVYQLLGGKTNEKLRTYASQLQFGWGDKRHILVTPEEYAEAARAALDDGYDAIKVDPLEIDRNGDDCVFQNRNRNYSGLLLADQLKMGEARIAAMREAMGDDADIIVEIHSLLGTNSAIQFAKAIEKYRIFLYEEPIHPLNSDNMQKVSRSTTIPIATGERSYTRWGYRELLEKQSIAVAQPDLCLCGGITEGKKICDYANIYDTTVQVHVCGGPVSTVAALHMETAIPNFIIHEHHTNAMKASIRELCTHDYQPENGYYVAPEQPGLGQELNDEVVKEYLAYVIKEGHHHHHH”, with “not failed”; and “MSLKIYGVYRSRASRPLWLLAELDLPFEHVPVIQANRVAHPHGPEAPLNTASAAYLAVNPLGQIPCLEEEGLILTESLAITLHIARTQGGQLGPRSEPEDALMVSWSLFAATAVEPPALEIQLIQRSGGGTSPEGQAAIAIAAERLRRPLARLERHFAAEDYLVGGRFTVADLNLAETLRYGQAHPALLEPFPAVAAWLDRCQSRPAFRLMMERRAAEGHHHHHH”, with “not failed”.
As to “MSLKYLGVYVMEVQKNSSFKNKLQIGDTVLGANGHRFHSTEEMMTYLRKQKINSKVTISVLRGKEKLEHHHHHH”, the protein production result was “failed”.
In the case of “MSLLESIAVVINLLGVWLTARRIRWCWPVGIVAVALYAWLFYQWKLYSDMLLQGVYVLTQLYGWWHWQPGTAADTRIRPLPMPSAERWLSLGIGAAFAATLGAYMHYRTDAVLPWLDAALASFSLVASVWAARKRIANWVLWIVLDCVYVGVFISKGLYPTAVLYAGFVALAVYGWHSWKTQQNQNLAVAR” it was “failed”; in that of “MSLMDYFAIHVVPKLYRGKGAFHPAETGKLTETVSCVREYDVNIFFIRKGNTLIAIDSGYKNHHALLPGCKKIEIDPKAVQALFLTHADPDHAGGLDIRCENCFINAEIYLGEIEENYLTNTIYRKKIGPFGLKNSVKIKDNYHLLKDGQSVSVGDLTIQPFLVPGHTLGHLMYLIDNELLFTGDSIALNQEGGWCFFDLFNYNSEMNIKSLKTLKEKLDLNRIKYVFTSHNGFTDKAKEAFAHVDVIPKWNEKGFIFDKTAPYDCFAD”, “failed”.
In the case of “MSLNARARALRHSRSGTIGLIVPDVNNAVFADMFSGVQMAASGHSTDVLLGQIDAPPRGTQQLSRLVSEGRVDGVLLQRREDFDDDMLAAVLEGVPAVTINSRVPGRVGSVILDDQKGGGIATEHLITLGHSRIAFISGTAIHDTAQRRKEGYLETLASAGLRSEAAWVVDAGWEADAGSAALNTLYRGANLGKPDGPTAVVVASVNAAVGALSTALRLGLRVPEDLSIVGINTTWVSDTVYPALTTVRLPLQRLGEVAADVLMEHLGGRALTDTVVTQPTPELLVRETTAPPTREGHHHHHH” it was “not failed”.
In the case of “MSLNERILLVDDDYSLLNTLKRNLSFDFEVTTCESGPEALACIKKSDPFSVIMVDMRMPGMEGTEVIQKARLISPNSVYLMLTGNQDLTTAMEAVNEGQVFRFLNKPCQMSDIKAAINAGIKQYDLVTEGHHHHHH” it was “not failed”.
In the case of “MSLNETYMMITFQSGMDYWKRCLKGFEDAAQALNVTVEYRGAAQYDIQEQITVLEQAIAKNPAGIAISAIDPVELTDTINKAVDAGIPIVLFDSGAPDSHAHSFLGTNNYNAGMNAAYKMAELLDGEGEVAVITLPNQLNHQERTTGFKETLEAEFPAIEVIAVEDGRGDSLHSRRVAHQLLEDYPNLAGIFATEANGGVGVGDAVRLESRAGEIQIISFDTDKGTLDLVDEGIISATLAQGTWNMGYWSLTYLFHLHHGLTEPQILQTREEAPLPLYVDTGITIVTDENVDYYYADEGHHHHHH”, the protein production result is listed as “not failed”.
Then “MSLNGKTMFISGASRGIGLAIAKRAAQDGANIALIAKTAEPHPKLPGTVYTAAKELEEAGGQALPIVGDVRDPESVEAAVAKTVEQFGGIDICVNNASAINLGPITEVPMKRFDLMNGIQVRGTYAVSQACIPHLKGRENPHILTLSPPVLLGKEWLKPTAYMMAKFGMTLCALGIAEEMREAGIASNTLWPRTLVATAAVQNLLGGDEAMGRARKPEVYSDAAYVILNKPAREFTGNMLLCEDVLVESGVTDLSVYNCVPGSQLGVDFWVDGVNPPGYTGP”, with “failed”; and “MSLNIEEWEEYRYVEAGIKESITLIEDPGLKKMVEHVCHSGGKRIRPIILLLVSEICSGSYSRSLNAALAVEMMHSASLIHDDLLDQGLVRRNLPSAPEKFGPSGALLCGDYLIAKSIAFISPYGEKVIQDFGKAGMDMAEGEVLDLKLEDESFGENDYFKCIYKKTASLFAISASIGAYTGGAEEELAERFSHFGNALGTAYQIVDDILEFLEVVEGKESKFTSETLPHIYMKSTSKEEALKKSIDCVKLHVAAAKETLETFRECPARDKLFQITDYITVDMLENLEGHHHHHH”, with “not failed”; and “MSLNNQDISIGKLSRLKIWITDNHLSDDQWSNTKKFIIIKITTEDGIEGWGEAFSINFREKGIAIIIKELFREISNIPNLSIKSFYNKISLLSDGHRGLDFSSATSAIEIALWDISGKLKNLPLNSLLTKSPKPNVPIYATCWSDLKKDTNDYLRQIEKFYGKKYGGIKIYPMLDSLSISIQFVEKVREIVGDELPLMLDLAVPEDLDQTKSFLKEVSSFNPYWIEEPVDGENISLLTEIKNTFNMKVVTGEKQSGLVHFRELISRNAADIFNPDISGMGGLIDIIEISNEASNNGIFISPHCWNSMSVSASAMLHVCSSIPNSEKAEIFPDYINFSKKFCELPFDIIDNKAHINKSAGLGIVIHEDILSELSIYSLDEKSNDEGHHHHHH”, with “not failed”.
Then “MSLNRFTKTSQGRSWNTGNGSPDAICFAVDKPGIVVVGFAVYGGGGIHEYELEVLVDDSEHAGDSTHSHRWTSLELVKGTYTTDDSPSDIAEIRLDKVVPLKENVKYAVRLRNYGSRTANGDGGMTTVQCPDGVTFTFSTCSLSSNGTNQTRGQIPQILYYRSEEGHHHHHH”, with “not failed”.
In the case of “MSLPISLTDFFPIQGGMATRMVIEGANFGTDLSQIKVFFNQKEASILNVKNSIIYLLVPKLPGNDCIVTVKVGNQEARFTRNFQYIENYSVTTIAGQPGTNLFVEGTLAAAQFGPVQHLAIDDENNLFITERNGSDGKGTCSVLNEESGTVTFLFKASDNLNVPTVNAQTQNVYIPLDGGYTFYELNPVNQWIAKSRLVLHPSKEQQEAGMDDFEINWKHSLAFSRYDNMIYTRSYGGDLIKVDPETRVGQKIGNFFPNTDSFIVAHPTQPEILYIAYAAKHVIYTYNIETGEHKLFAGAFGQSGWNDGIATDAEFNSPRQMSLDMEGNIYIADSGNHCIRMIDKNGIVTTPIGQPGEAGYADGSPDMALLNDPRGVAVNSEGDVYIADLGNRCIRKLTLQLEHHHHHH” it was “not failed”.
